What was measured:
[1] = test system: RCC tumor conditioned media (TCM) and plasma; assay: Fluorescence-quencher peptide cleavage screening, RCC tumor conditioned media versus plasma; assay type: biochemical, human; settings: RCC patients; fluorophore/quencher-labelled peptide
Protocol: (§1) In this example, the peptides library was subjected to cleavage screening by biological matrices, i.e., tumor conditioned media (TCM). The cleavage of the peptides library by plasma was performed for comparison. Each peptide in the library includes a fluorescent mark at one end of its sequence and a quencher on the other end of the sequence. Upon cleavage of the peptide, the quencher is separated from the fluorescent mark, thereby releasing the fluorescent mark. The peptide substrates with the highest ratio of (initial rate of cleavage by tumor conditioned media (TCM) - initial rate of cleavage by plasma) in pmol/min, from cancer patients were identified.

[2] = test system: H&N tumor conditioned media (TCM) and plasma; assay: Fluorescence-quencher peptide cleavage screening, H&N tumor conditioned media versus plasma; assay type: biochemical, human; settings: Head and Neck cancer patients; fluorophore/quencher-labelled peptide
Protocol: as §1

MMP-1 = biological target: T1, MMP-1 (Homo sapiens, UniProt P03956); assay: Cleavage by recombinant protease MMP-1; assay type: biochemical; settings: initial rate, recombinant MMP-1
T1 sequence (P03956 100-469): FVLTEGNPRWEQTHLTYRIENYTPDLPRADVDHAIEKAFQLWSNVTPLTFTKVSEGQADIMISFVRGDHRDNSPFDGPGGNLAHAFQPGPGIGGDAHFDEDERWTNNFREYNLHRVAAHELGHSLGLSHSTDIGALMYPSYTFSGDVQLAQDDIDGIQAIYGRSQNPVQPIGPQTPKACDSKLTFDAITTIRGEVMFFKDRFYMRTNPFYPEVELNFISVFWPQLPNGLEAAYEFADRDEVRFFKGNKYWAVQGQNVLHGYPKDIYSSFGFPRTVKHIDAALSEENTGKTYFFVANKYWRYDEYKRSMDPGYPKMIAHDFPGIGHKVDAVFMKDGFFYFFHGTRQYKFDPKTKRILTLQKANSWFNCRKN
Protocol: as §1
(§2) The peptides with high ratio of initial rate of cleavage by tumor conditioned media (TCM) to initial rate of cleavage by plasma were further screened using recombinant proteases. The peptide substrates that have high initial rates (uM/h) of cleavage by recombinant proteases were identified (Table 4).

MMP-2 = biological target: T2, MMP-2 (Homo sapiens, UniProt P08253); assay: Cleavage by recombinant protease MMP-2; assay type: biochemical; settings: initial rate, recombinant MMP-2
T2 sequence (P08253 110-660): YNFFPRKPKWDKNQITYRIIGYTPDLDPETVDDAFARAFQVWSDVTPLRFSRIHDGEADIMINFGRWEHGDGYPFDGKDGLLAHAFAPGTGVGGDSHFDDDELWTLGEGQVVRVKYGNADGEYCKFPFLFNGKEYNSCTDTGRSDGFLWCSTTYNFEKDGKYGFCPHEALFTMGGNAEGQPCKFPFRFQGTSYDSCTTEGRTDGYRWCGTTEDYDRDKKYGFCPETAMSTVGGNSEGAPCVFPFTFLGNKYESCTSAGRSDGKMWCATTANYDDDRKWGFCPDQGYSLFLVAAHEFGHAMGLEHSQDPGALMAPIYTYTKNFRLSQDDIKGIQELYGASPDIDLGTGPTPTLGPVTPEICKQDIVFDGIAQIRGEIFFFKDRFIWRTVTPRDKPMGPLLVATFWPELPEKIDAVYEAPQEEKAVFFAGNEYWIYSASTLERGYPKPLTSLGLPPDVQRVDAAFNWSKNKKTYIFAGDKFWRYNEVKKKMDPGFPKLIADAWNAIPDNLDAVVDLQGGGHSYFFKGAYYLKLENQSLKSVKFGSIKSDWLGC
Protocol: as §1, §2

MMP-7 = biological target: T3, MMP-7 (Homo sapiens, UniProt P09237); assay: Cleavage by recombinant protease MMP-7; assay type: biochemical; settings: initial rate, recombinant MMP-7
T3 sequence (P09237 95-267): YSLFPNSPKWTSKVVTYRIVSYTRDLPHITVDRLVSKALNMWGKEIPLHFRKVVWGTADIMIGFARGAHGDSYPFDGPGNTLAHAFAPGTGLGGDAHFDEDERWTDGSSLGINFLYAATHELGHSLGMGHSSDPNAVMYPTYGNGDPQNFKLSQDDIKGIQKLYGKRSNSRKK
Protocol: as §1, §2

MMP-8 = MMP-8 (Homo sapiens, UniProt P22894); assay: Cleavage by recombinant protease MMP-8; assay type: biochemical; settings: initial rate, recombinant MMP-8
Protocol: as §1, §2

MMP-9 = MMP-9 (Homo sapiens, UniProt P14780); assay: Cleavage by recombinant protease MMP-9; assay type: biochemical; settings: initial rate, recombinant MMP-9
Protocol: as §1, §2

MMP-10 = MMP-10 (Homo sapiens, UniProt P09238); assay: Cleavage by recombinant protease MMP-10; assay type: biochemical; settings: initial rate, recombinant MMP-10
Protocol: as §1, §2

MMP-14 = MMP-14 (Homo sapiens, UniProt P50281); assay: Cleavage by recombinant protease MMP-14; assay type: biochemical; settings: initial rate, recombinant MMP-14
Protocol: as §1, §2

CatB = CatB (Homo sapiens, UniProt P07858); assay: Cleavage by recombinant protease Cathepsin B; assay type: biochemical; settings: initial rate
Protocol: as §1, §2

[3] = test system: 'NAT' (Normal Adjacent Tissue) culture supernatant; assay: Cleavage of synthetic peptides in NAT culture supernatant (MSP-MS); assay type: biochemical; settings: for Earliest cleaved time point -NAT: NAT culture supernatant, MSP-MS; for NAT + CFZ: cleavage in NAT culture supernatant, carfilzomib (CFZ) in the incubation media, given as fraction x/5
Protocol: (§3) Sequences comprising cleavage peptides […] (SEQ ID NO: 1) or […] (SEQ ID NO:2) (shown in bold below) were incubated in either ‘NAT’ (Normal Adjacent Tissue) or ‘RCC’ (Renal Cell Carcinoma) culture supernatants, to test the specificity of each peptide’s cleavage. Carfilzomib (CFZ) is also included in the incubation media as an inhibitor of proteosome, to inhibit false positive cleavage.
(§4) To this end, peptide sequencing by mass spectrometry was used to identify cleaved fragments produced for the synthetic peptides shown in the table below, using a published technique called multiplexed substrate profiling by mass spectrometry (MSP-MS) (O’Donoghue A.J. et al. Nat Methods. 2012 Nov;9(11):1095-100.) Cleavages were monitored in these reactions over time, and the peptides found to be cleaved in the earliest time points were deemed to be most sensitive to proteolytic activity in the conditioned media samples.

[4] = test system: 'RCC' (Renal Cell Carcinoma) culture supernatant; assay: Cleavage of synthetic peptides in RCC culture supernatant (MSP-MS); assay type: biochemical; settings: for Earliest cleaved time point -RCC: RCC culture supernatant, MSP-MS; for RCC + CFZ: cleavage in RCC culture supernatant, carfilzomib (CFZ) in the incubation media, given as fraction x/5
Protocol: as §3, §4

[5] = patients who received a 5-minute intravenous (IV) infusion; product label; cited from earlier work

Chain of MMP-8 (P22894 101-467): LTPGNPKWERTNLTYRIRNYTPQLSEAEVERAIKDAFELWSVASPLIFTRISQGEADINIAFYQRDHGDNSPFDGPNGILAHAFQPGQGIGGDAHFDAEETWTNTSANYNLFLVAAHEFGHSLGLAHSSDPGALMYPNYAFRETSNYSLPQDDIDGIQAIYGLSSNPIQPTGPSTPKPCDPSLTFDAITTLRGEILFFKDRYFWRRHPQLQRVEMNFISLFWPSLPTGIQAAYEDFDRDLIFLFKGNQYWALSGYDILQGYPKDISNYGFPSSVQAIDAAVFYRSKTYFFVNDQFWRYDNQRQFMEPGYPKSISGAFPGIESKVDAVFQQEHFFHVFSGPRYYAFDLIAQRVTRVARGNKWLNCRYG
Chain of MMP-10 (P09238 99-476): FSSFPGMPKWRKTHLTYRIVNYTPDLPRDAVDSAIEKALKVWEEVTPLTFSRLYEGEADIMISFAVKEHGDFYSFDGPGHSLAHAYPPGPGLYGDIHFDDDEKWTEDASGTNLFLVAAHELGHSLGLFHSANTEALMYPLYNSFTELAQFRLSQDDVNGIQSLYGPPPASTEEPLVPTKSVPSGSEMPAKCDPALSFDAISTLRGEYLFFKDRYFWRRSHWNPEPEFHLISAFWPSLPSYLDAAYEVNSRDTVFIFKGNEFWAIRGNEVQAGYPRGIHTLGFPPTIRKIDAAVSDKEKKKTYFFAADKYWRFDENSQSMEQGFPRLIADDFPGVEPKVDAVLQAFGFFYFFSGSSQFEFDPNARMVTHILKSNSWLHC
Chain of MMP-9 (P14780 94-707): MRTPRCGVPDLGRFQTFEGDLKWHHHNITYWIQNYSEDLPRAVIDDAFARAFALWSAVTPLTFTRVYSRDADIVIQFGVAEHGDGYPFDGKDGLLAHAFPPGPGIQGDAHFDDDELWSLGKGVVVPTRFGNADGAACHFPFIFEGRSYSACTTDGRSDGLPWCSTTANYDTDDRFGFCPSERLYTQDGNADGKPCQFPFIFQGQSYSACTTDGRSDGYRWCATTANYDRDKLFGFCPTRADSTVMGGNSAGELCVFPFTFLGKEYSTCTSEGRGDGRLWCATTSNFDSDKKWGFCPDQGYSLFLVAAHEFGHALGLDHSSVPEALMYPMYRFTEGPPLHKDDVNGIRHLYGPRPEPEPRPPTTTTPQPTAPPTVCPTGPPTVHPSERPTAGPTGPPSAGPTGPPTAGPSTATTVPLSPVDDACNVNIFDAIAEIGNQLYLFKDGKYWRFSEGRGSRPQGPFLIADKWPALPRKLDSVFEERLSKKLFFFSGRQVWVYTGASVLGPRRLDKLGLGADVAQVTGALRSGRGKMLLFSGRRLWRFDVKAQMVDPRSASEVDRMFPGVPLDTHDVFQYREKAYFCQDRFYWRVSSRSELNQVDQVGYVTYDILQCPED

Substance	Initial cleavage rate in tumor conditioned media minus initial cleavage rate in plasma [1] [pmol/min]	Initial cleavage rate difference, tumor conditioned media minus plasma [2] [pmol/min]	Rates of cleavage by recombinant proteases, MMP-1 (MMP-1) [µM/h]	Rates of cleavage by recombinant proteases, MMP-2 (MMP-2) [µM/h]	Rates of cleavage by recombinant proteases, MMP-7 (MMP-7) [µM/h]	Rates of cleavage by recombinant proteases, MMP-8 (MMP-8) [µM/h]	Rates of cleavage by recombinant proteases, MMP-9 (MMP-9) [µM/h]	Rates of cleavage by recombinant proteases, MMP-10 (MMP-10) [µM/h]	Rates of cleavage by recombinant proteases, MMP-14 (MMP-14) [µM/h]	Rates of cleavage by recombinant proteases, CatB (CatB) [µM/h]	Earliest cleaved time point -NAT [3] [min]	NAT + CFZ [3]	Earliest cleaved time point -RCC [4] [min]	RCC + CFZ [4]	half-life [5] [h]
APAGLIVPYN [proteolytically cleavable peptide (CP), protease substrate]	0.2	0.1	0.0	29.6	2.4	0.5	1.8	1.6	2.1	1.0	–	–	–	–	–
IVGRPRHQGV [proteolytically cleavable peptide (CP), protease substrate]	0.6	0.1	0.0	0.0	0.0	0.0	0.0	0.0	0.0	1.9	–	–	–	–	–
PANLVAPDP [proteolytically cleavable peptide (CP), protease substrate]	0.1	0.4	2.7	31.2	2.5	7.2	8.8	1.8	0.7	0.0	–	–	–	–	–
PVSLRSGS [proteolytically cleavable peptide (CP), protease substrate]	0.2	0.0	0.0	1.9	0.2	0.1	6.5	0.0	0.0	0.0	–	–	–	–	–
RPLALWRS [proteolytically cleavable peptide (CP), protease substrate]	0.5	0.0	0.1	1.1	0.2	0.2	0.2	0.0	0.0	0.3	–	–	–	–	–
RQGGM*PKDLYHA*SAKQ (RQGGMPKDLYHASAKQ) [Alu-XT-091, * indicates cleavage site]	–	–	–	–	–	–	–	–	–	–	5	1/5	15	5/5	–
RSKYLATA [proteolytically cleavable peptide (CP), protease substrate]	0.3	0.0	0.0	0.0	0.0	0.0	0.0	0.0	0.0	1.9	–	–	–	–	–
RVGPVSL*R*SGSGKI (RVGPVSLRSGSGKI) [Alu-XT-019, * indicates cleavage site]	–	–	–	–	–	–	–	–	–	–	5	1/5	15	5/5	–
TQKPLGLS [proteolytically cleavable peptide (CP), protease substrate]	0.2	0.2	0.0	11.8	1.8	0.1	0.3	0.0	0.1	0.3	–	–	–	–	–
aldesleukin	–	–	–	–	–	–	–	–	–	–	–	–	–	–	1.42
